The source of these data is patent US20250222146A1, “Radiopharmaceuticals Targeting Somatostatin Receptor 2 and Uses Thereof” (RayzeBio, Inc., priority 2023, published 2025).

Where two headings read alike, the source gives them in different places. Numbered stars: 1 amine (or outer) side, 2 acyl side, 3 side chain; on linkers, the order of the positions; unused ones are H or OH. Square brackets hold non-standard residues; d marks the D form. Peptide text beside a SMILES is read from it. * marks the point of attachment. DOTA(Lu)NH(CH2)6NHCOCH2 = O=C(CN1CCN2CCN3CCN(CC1)CC(=O)[O][Lu]([O]C(=O)C2)[O]C(=O)C3)NCCCCCCNC(=O)C*; dTrp(βS-Me) = C[C@@H](c1c[nH]c2ccccc12)[C@@H](N)C(=O)O; Ala(piperazin-1-yl) = N[C@@H](CN1CCNCC1)C(=O)O; X2 = O=C([C@H](CCC1CNC1)N[*:1])[*:2]; NMehCys = CN[C@@H](CCS)C(=O)O; NMeK = CN[C@@H](CCCCN)C(=O)O Some results are limits rather than exact numbers.

Data set [1] can be described thus: Peptide conjugate biodistribution measured by tissue PK (ICP-MS, % ID/g in kidney tissue at 2 h). The format is in vivo. Particulars: 2 h time point, mouse. As for the experimental part: Macrocyclic peptides and conjugates described herein were tested for tissue distribution by measuring concentrations in tissues by MS using in vivo animal models. Peptide metal chelates were dosed to animals and tissues were collected at specific time points based off the peptide PK profile. The samples were then analyzed by MS and the results reported as % ID/g (% injected dose/gram). Radiopharmaceutical conjugates of the present disclosure have improved tissue distribution for radiopharmaceutical therapeutics.
Peptide metal chelate doses were suspended in phosphate-buffered saline (PBS) containing 0.1% Tween 80. An injection volume of 100 μL per mouse was used, and blood and tissue samples were collected, weighed, and stored frozen at-80° C. until analysis. Tissue samples were digested with concentrated nitric acid in a microwave digestion apparatus. The sample digest was diluted with internal standard and analyzed using inductively coupled plasma mass spectrometry (ICP-MS). ICP-MS is an elemental analysis technique used to measure elements by using argon plasma to convert the sample into ions that are then measured using the mass spectrometer. Calibration standards were used for quantification of element(s) of interest by constructing a multipoint standard curve covering the range of analyte concentrations anticipated in the samples (typical range is 500 ppt to 0.1 ppt). A single quadrupole instrument (iCAP RQ, Thermo Fisher) ICP-MS was coupled with a Teledyne CETAC autosampler and used for the sample analysis.
The % ID/g of conjugate in kidney tissue at the 2-hour time point (2 h) was quantified for various conjugates, and the results are shown in Table 10. Lower kidney tissue % ID/g values indicate lower distribution to the kidney after administration of the conjugate.

The target of the next data set is SSTR2 (Homo sapiens, UniProt P30874). Kind of data set: SSTR binding affinity by radioligand binding competition assay ([125I]-Tyr11-Somatostatin, membrane extracts). Particulars: radioligand competition, [125I]-Tyr11-Somatostatin 0.1 nM, membrane extracts, Ki from IC50 by Cheng Prusoff. (In general: Loss of bound radioactivity is the signal in a displacement assay; it reports binding, not function.)

For data set [2], the target named is T1, somatostatin receptor type 2 (SSTR2) (UniProt P30874 1-369, limits assumed).
T1 construct: also called SSTR protein
Kind of data set: radioligand competition; Ki bin per legend.

What is called tissue uptake is the share of the injected amount in each gram of the tissue. A lower tissue uptake goes with little accumulation. In general, Ki refers to the equilibrium dissociation constant of an inhibitor or competing ligand from its target.

Sequence of SSTR2 (P30874 whole entry): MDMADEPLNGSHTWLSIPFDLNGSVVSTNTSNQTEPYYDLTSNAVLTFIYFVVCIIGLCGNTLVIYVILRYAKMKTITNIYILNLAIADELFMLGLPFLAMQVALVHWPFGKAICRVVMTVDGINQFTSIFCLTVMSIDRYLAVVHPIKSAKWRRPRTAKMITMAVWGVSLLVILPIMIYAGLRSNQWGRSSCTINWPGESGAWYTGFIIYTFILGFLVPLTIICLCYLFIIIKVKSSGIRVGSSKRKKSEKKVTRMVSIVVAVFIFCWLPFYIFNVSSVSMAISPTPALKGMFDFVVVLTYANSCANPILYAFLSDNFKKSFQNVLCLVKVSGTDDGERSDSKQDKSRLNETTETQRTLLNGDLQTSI
T1 sequence (P30874 whole entry): as above

In data set [1], `C[C@@H](O)[C@@H]1NC(=O)[C@H](CCC2CNC2)NC(=O)[C@@H](Cc2c[nH]c3ccccc23)NC(=O)[C@H](Cc2ccc(O)cc2)NC(=O)[C@H](CCSCC(=O)NCCCCCCNC(=O)CN2CCN3CCN4CCN(CC2)CC(=O)[O][Lu]([O]C(=O)C3)[O]C(=O)C4)N(C)C(=O)[C@H](Cc2ccccc2)NC1=O` [RB-0005897] (cyclo(F[NMehCys](DOTA(Lu)NH(CH2)6NHCOCH2)Y[dW][X2]T)) displayed a tissue uptake at 2 h of 2.5 %ID/g. Further, on SSTR2 (read-out: SSTR2 Ki), the Ki was less than 1 nM.

In data set [1], `C[C@@H](O)[C@@H]1NC(=O)[C@H](CCCCN)NC(=O)[C@@H](Cc2c[nH]c3ccccc23)NC(=O)[C@H](Cc2ccc(O)cc2)NC(=O)[C@H](CCSCC(=O)NCCCCCCNC(=O)CN2CCN3CCN4CCN(CC2)CC(=O)[O][Lu]([O]C(=O)C3)[O]C(=O)C4)N(C)C(=O)[C@H](Cc2ccccc2)NC1=O` [RB-0003149] had a tissue uptake at 2 h of 8.4 %ID/g. Besides, the inhibitory constant (Ki) on SSTR2 (SSTR2 Ki) is less than 1 nM. Turning to XYWKTF (cyclo[NMe-Hcy(COCH2-Dah-DOTA-Lu);Tyr;D-Trp;NMe-Lys;Thr;Phe]) [RB-0003453], the inhibitory constant (Ki) in data set [2] is less than 1 nM.

In data set [2], XYWKVF (cyclo[NMe-Hcy(COCH2-Dah-DOTA-Lu);Tyr;D-Trp;Lys;Val;Phe]) [RB-0002676] registered an inhibition constant Ki of less than 1 nM.

B1: RB-0006176 (peptide)
peptide: cyclo([NMeK]Y[dTrp(βS-Me)][Ala(piperazin-1-yl)]TF)
modifications: not fully specified (residue 1); printed as cyclo[NMe-Lys(DOTA-Lu),Tyr,(S-βMe)D-Trp,PipzaA,Thr,Phe]; also: Lu chelated in DOTA
With B1, in data set [2], the inhibition constant Ki was less than 1 nM.
